Measurements published in patent publication US20180016349A1 (Takeda / Millennium, published 2018).

B1: Ab19 (antibody, human IgG1, lambda, V domains shown)
VH: EVQLLESGGGLVQPGGSLRLSCAASGFTFNNYDMTWVRQAPGKGLEWVAVISYDGSDKDYADSVKGRFTISRDNSKNTLYLQMNSLRAEDTAVYYCARVYYYGFSGPSMDVWGQGTLVTVSS
VL: QSVLTQPPSASGTPGQRVTISCSGSNSNIGSNTVNWYQQLPGTAPKLLIYSDSNRPSGVPDRFSGSKSGTSASLAISGLRSEDEADYYCQSYDSSLSGSRVFGGGTKLTVLG
B2: Ab79 (antibody, human IgG1, lambda, V domains shown)
VH: EVQLLESGGGLVQPGGSLRLSCAASGFTFDDYGMSWVRQAPGKGLEWVSDISWNGGKTHYVDSVKGQFTISRDNSKNTLYLQMNSLRAEDTAVYYCARGSLFHDSSGFYFGHWGQGTLVTVSS
VL: QSVLTQPPSASGTPGQRVTISCSGSSSNIGDNYVSWYQQLPGTAPKLLIYRDSQRPSGVPDRFSGSKSGTSASLAISGLRSEDEADYYCQSYDSSLSGSVFGGGTKLTVLG
notes: also called TSF79
B3: Ab110 (antibody, human IgG1, lambda, V domains shown)
VH: EVQLLESGGGLVQPGGSLRLSCAASGFTFSSYGMHWVRQAPGKGLEWVSIIYSGGSTYYADSVKGRFTISRDNSKNTLYLQMNSLRAEDTAVYYCARRATWGGATHDYWGQGTLVTVSS
VL: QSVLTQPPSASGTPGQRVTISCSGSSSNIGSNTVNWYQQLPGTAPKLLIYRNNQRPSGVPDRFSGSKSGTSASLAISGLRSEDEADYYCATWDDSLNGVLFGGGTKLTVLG
B4: Ab43 (antibody, human IgG1, lambda, V domains shown)
VH: EVQLLESGGGLVQPGGSLRLSCAASGFTFSSYGMHWVRQAPGKGLEWVSRINSDGSSTSYADSMKGQFTISRDNSKNTLYLQMNSLRAEDTAVYYCARGGYYYYAMDVWGQGTLVTVSS
VL: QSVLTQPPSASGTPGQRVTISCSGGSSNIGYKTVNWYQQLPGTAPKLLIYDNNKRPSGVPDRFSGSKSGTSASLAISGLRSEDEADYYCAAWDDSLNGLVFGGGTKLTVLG
B5: Ab72 (antibody, human IgG1, lambda, V domains shown)
VH: EVQLLESGGGLVQPGGSLRLSCAASGFTFSSYGMNWVRQAPGKGLEWVSGISGSGGSTYYADSVKGRFTISRDNSKNTLYLQMNSLRAEDTAVYYCAKDSNYDFWSGYYYGMDVWGQGTLVTVSS
VL: QSVLTQPPSASGTPGQRVTISCSGSSSNIGSKTVSWYQQLPGTAPKLLIYDNNKRPSGVPDRFSGSKSGTSASLAISGLRSEDEADYYCSSYAARSTNIIFGGGTKLTVLG

target: T1, cynomolgus CD38 (cynomolgus (Macaca fascicularis), UniProt Q5VAN0 1-301, limits assumed); experiment: not described at this place (FACS screen on CHO cells expressing cynomolgus CD38 is described in Example 3)
T1 construct: also called cyCD38; cyno CD38
T1 sequence (Q5VAN0 whole entry): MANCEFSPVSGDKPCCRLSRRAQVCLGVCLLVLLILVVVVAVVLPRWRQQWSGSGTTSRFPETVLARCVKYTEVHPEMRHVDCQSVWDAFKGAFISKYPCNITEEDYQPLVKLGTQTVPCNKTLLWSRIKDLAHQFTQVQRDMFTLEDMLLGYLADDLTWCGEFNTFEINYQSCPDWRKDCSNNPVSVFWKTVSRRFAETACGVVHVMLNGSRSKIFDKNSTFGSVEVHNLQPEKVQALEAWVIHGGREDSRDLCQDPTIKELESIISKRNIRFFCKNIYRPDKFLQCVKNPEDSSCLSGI

Row | binding result | Binder
1 | binds | B1
2 | binds | B2

target: T2, human CD38 on cells (MOLP-8, RPMI-8226, Daudi cell lines, patient cells and tissues) (human, UniProt P28907 1-300); experiment: flow cytometry (FACS KD) on RPMI-8226 cells
T2 construct: Endogenous CD38 of human cell lines and patient samples; also called huCD38

Row | Kd [nM] | Binder
3 | 0.508 | B2

target: T2, human CD38 on cells (MOLP-8, RPMI-8226, …); experiment: flow cytometry titration on MOLP-8 cells, 4 C, nonlinear fit; 95% confidence interval in parentheses

Row | Kd [nM] | Binder
4 | 1 | B3
5 | 0.4 | B1
6 | 1.1 | B4
7 | 1.2 | B2
8 | 0.6 | B5

target: T3, soluble human CD38 ectodomain (ECD), R&D Systems Cat #2404-AC (human, UniProt P28907 43-300); experiment: SPR Biacore A100, 22 C, mAb captured by anti-human IgG, soluble human CD38 ECD as analyte, 1:1 fit
T3 construct: Bought ectodomain; also called HuCD38; human recombinant CD38

Row | Kd [nM] | koff [s⁻¹] | kon [M⁻¹ s⁻¹] | Binder
9 | 1400 | 0.171 | 122000 | B3
10 | 5.3 |  |  | B1
11 | 537 | 0.146 | 272000 | B4
12 | 5.5 |  |  | B2
13 | 126 | 0.00182 | 14400 | B5

target: T2, human CD38 on cells (MOLP-8, RPMI-8226, …); experiment: cell-based or functional assay

Row | ADCC EC50 nM (DAUDI) [nM] | ADCC EC50 nM (MOLP-8) [nM] | ADCC EC50 nM (RPMI-8226) [nM] | Apoptosis EC50 nM (DAUDI) [nM] | CDC EC50 nM (MOLP-8) [nM] | Binder
14 | 0.24 | 0.874 | 2.98 | 0.4 | 1.99 | B3
15 | 0.08 | 0.038 | 0.46 | 0.032 | 0.98 | B1
16 | 0.12 | 0.027 | 3.84 | 1.56 | 2.2 | B4
17 | 0.03 | 0.047 | 0.46 | 0.048 | 1.1 | B2
18 | 0.14 | 0.193 | 2.35 | 0.35 | 0.66 | B5
